The values below come from patent publication US20130059311A1, “METHOD FOR THE IDENTIFICATION OF MEMORY MODULATING COMPOUNDS BY ASSESSING KIBRA EXPRESSION” (SYGNIS BIOSCIENCE GMBH & CO KG, priority 2010, published 2013).

The target of series [1] is T1, PKC zeta (Homo sapiens, UniProt Q05513).
T1 construct: expressed in transfected cells; host or cells: COS cells
T1 sequence (Q05513 1-592): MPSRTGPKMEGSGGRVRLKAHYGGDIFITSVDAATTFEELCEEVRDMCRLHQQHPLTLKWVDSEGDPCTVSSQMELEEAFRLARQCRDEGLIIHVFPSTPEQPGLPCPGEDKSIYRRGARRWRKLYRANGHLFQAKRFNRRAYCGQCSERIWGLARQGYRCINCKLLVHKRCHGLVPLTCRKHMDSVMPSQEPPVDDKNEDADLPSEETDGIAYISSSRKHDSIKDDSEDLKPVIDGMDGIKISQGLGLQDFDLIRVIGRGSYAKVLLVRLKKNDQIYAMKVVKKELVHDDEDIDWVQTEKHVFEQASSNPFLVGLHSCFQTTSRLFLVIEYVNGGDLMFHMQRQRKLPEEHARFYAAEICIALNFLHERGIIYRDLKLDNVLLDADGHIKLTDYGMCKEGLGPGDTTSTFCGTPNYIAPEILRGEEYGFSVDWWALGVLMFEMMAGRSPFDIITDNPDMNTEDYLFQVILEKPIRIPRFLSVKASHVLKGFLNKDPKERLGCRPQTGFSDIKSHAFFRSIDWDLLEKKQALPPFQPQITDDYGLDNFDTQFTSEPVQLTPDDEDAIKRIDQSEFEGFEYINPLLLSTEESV
The experiment in a line: PKC zeta kinase activity assay on pulldowns from COS cells. The note with it: pulldowns from COS cells over-expressing PKC zeta and KIBRA vs PKC zeta alone. In kind it is biochemical. On the procedure: To investigate the impact of KIBRA on PKC zeta activity itself, PKC zeta activity were determined in an enzyme assay. The kinase activity in the assay is detected by the phosphorylation of a substrate peptide by an antibody reaction according to manufactures instruction (HTScan PKC zeta kinase assay kit, Cell Signaling Technology Inc., Danvers, Mass., USA). The antibody is detected by a lanthanide-labeled secondary antibody, which can be measured in a fluorescent plate reader.
In order to analyze PKC zeta activity with and without KIBRA, COS cells over-expressing PKC zeta alone or in combination with KIBRA were lysed and PKC zeta was pulled down with respective PKC zeta binding beads.
Previous studies have shown that PKC zeta co-immunoprecipitates with KIBRA, and immunoreactive bands for KIBRA in the western blot analysis confirmed that PKC zeta pulldowns include KIBRA protein from cells also over-expressing KIBRA. When pulldowns from cells over-expressing PKC zeta were compared to cells over-expressing both PKC zeta and KIBRA for the phosphorylation of substrate peptide in the activity assay, a strong increase of PKC zeta activity by 50% was observed. […] Analysis of the kinase activity of the truncated form confirmed that the phosphorylation of the peptide was only mediated by PKC zeta and no other kinase attached to the beads.

For series [2], the system named is KIBRA (KIdney BRAin protein).

On to “KIBRA: KIBRA protein over-expressed in COS cells together with PKC zeta”, for which the “increase of PKC zeta activity” value in series [1] came to 50%.

Consider protein kinase C zeta, for which, in series [2], the “PKC zeta kinase activity (phosphorylation of substrate peptide, HTScan PKC zeta kinase assay kit) of PKC zeta pulldowns” value was “a strong increase of PKC zeta activity by 50% was observed”.
